Five molecules from patent publication US8853149 can be followed below.

The test has as its target integrins. Kind of test: cell-based or functional assay.

B1: cyclic III peptide 4 (KLKLK-T1-MVVAW-T1) (peptide)
peptide: KLKLKMVVAW
modifications: here or on the partner: head-to-tail cyclic; two T1 linkers (NH2CH2CH2N(SO2Me)CH2COOH) join the strands
B1 gave an IC50 (µM), bioactivity of cyclic III peptide analogs of 4 µM.

B2: cyclic III peptide 5 (KLKLK-T1-MVASW-T1) (peptide)
peptide: KLKLKMVASW
modifications: here or on the partner: head-to-tail cyclic; two T1 linkers (NH2CH2CH2N(SO2Me)CH2COOH) join the strands
The molecule B2 showed an IC50 (µM), bioactivity of cyclic III peptide analogs of 19 µM.

B3: cyclic III peptide 3 (KLKLK-T1-MVVSA-T1) (peptide)
peptide: KLKLKMVVSA
modifications: here or on the partner: head-to-tail cyclic; two T1 linkers (NH2CH2CH2N(SO2Me)CH2COOH) join the strands
Consider B3, for which the IC50 (µM), bioactivity of cyclic III peptide analogs was 57 µM.

B4: cyclic III peptide 6 (KLKLK-T1-MAVSW-T1) (peptide)
peptide: KLKLKMAVSW
modifications: here or on the partner: head-to-tail cyclic; two T1 linkers (NH2CH2CH2N(SO2Me)CH2COOH) join the strands
In turn, B4 displayed an IC50 (µM), bioactivity of cyclic III peptide analogs of 6 µM.

B5: cyclic III peptide 7 (KLKLK-T1-AVVSW-T1) (peptide)
peptide: KLKLKAVVSW
modifications: here or on the partner: head-to-tail cyclic; two T1 linkers (NH2CH2CH2N(SO2Me)CH2COOH) join the strands
For the molecule B5, the IC50 (µM), bioactivity of cyclic III peptide analogs is 31 µM.
